Experimental data from article PMC12097070 (Advanced Science, 2025).

Experiments:
Details in all cases: both partners purified
[1] = molecular target: T1, human glucose‐regulated protein 78 (hGRP78), full-length (Homo sapiens (Human)., UniProt P11021); assay: SPR; Biacore T100; […] (10 µg mL^-1) […]; association 120 s, dissociation 300 s; […]
T1 construct: also called BiP; HSPA5

mouse GRP78 (mGRP78) = molecular target: T2, mouse GRP78 (mGRP78) (Mus musculus (Mouse)., UniProt P20029); assay: ELISA; hGRP78 or mGRP78 (10 µg mL^-1) immobilised on plates overnight at 4 °C; blocked with 3% BSA/PBS; serially diluted HA‐tagged Nbs 1 h at RT; HRP anti‐HA; OD450
T2 construct: also called murine GRP78
T2 sequence (P20029 20-655): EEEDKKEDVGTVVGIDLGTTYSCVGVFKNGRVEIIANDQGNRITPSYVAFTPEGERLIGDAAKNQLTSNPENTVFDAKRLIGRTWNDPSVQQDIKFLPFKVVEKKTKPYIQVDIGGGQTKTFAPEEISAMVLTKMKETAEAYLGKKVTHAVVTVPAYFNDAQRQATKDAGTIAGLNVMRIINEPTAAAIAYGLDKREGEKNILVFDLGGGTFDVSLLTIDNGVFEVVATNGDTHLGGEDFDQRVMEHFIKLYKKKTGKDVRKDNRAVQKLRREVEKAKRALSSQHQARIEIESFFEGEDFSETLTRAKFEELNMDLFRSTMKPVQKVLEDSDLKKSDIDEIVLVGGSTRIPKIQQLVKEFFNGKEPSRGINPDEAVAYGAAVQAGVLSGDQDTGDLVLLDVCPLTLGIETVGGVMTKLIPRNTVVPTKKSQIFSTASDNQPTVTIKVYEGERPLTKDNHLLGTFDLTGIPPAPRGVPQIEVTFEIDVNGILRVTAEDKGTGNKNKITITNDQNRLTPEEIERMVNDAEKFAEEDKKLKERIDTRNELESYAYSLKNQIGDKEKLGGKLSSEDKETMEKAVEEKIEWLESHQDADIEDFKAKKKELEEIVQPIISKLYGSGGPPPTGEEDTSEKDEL

BSA protein = BSA protein (Bos taurus (Bovine)., UniProt P02769); assay: ELISA; Nbs tested on BSA protein (Figure S7); details not shown
BSA protein, sequence (P02769 25-607): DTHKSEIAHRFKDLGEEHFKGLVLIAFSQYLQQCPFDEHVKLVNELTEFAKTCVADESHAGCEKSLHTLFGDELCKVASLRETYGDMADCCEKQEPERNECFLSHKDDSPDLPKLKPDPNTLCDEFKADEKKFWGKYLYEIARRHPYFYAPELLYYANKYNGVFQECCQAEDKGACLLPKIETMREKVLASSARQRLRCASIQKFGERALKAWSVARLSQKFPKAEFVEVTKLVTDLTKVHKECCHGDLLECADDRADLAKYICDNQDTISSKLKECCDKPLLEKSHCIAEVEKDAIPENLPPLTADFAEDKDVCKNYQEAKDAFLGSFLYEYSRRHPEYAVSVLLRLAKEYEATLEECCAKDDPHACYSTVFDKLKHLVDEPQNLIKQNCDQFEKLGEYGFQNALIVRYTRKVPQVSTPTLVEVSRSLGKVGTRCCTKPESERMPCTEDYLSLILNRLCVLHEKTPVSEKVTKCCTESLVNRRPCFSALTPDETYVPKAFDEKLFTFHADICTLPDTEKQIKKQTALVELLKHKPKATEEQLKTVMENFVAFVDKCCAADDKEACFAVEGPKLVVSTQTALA

T1 sequence (P11021 19-654): as the sequence (P20029 20-655) above, with F295Y, G620A, S631A counted along it

B1: Nb NBD1 (VHH)
VHH: AVQLVESGGGSVQAGGSLTLSCAASINTGNPALVGWYRQAPGKQREMVAMISISGNTNYAPSVKGRFTISRDNANKTIFLQMNSLTPEDTAVYYCKKLPFGSWGQGTQVTVSS
notes: source: E. coli BL21 (DE3), purified (Ni‐NTA, AKTA Pure System)
In the case of B1, the Kd [1] is reported as 3.4 nM, the binding result (mouse GRP78 (mGRP78)) is reported as “binds” and the binding result (BSA protein) is reported as “no binding”.
